The nature of data set [1]: folding stability dG unfold from trypsin proteolysis; higher = more stable. The method in brief:
(§1)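 Only designs with AlphaFold2 dimer inter-PAE above 15 were retained; each was a mini-protein under 80 residues with no cysteine, in a PA-tagged cDNA display construct. After digestion with trypsin and chymotrypsin and sequencing, K50 was inferred by Bayesian fitting of counts, and unfolding free energy was derived per protease or combined against a sequence-predicted unfolded-state K50 and a shared folded-state K50.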

Data set [2] can be described thus: folding stability dG unfold (combined trypsin and chymotrypsin); higher = more stable. The essentials:
as §1

Data set [3] is described as follows: folding stability dG unfold from chymotrypsin proteolysis; higher = more stable. The method in brief:
as §1

The source of these data is the supplement of paper PMC12764529.

± gives the half width of the 95% confidence interval.

As for “SAGVVVRPGEPVPFYVVRVETELRTRPRPDGSEVTTVETRVEVRPYTVTVGPVPVVEVPPDATDPADAASAG [r5_770_TrMRF]”, the “folding stability dG unfold” value was 2.09 ± 0.2 kcal/mol in data set [1], 3.21 ± 0.16 kcal/mol in data set [2] and 3.96 ± 0.17 kcal/mol in data set [3].

Consider “SAGWKPITAEEIKKLVKEFAEKAPPGDKRPVTVEIRLPLPNGRHWVFTIKVERTDNNVKVKIEVQPYNSAGG [r19_220_TrROS]”, for which the “folding stability dG unfold” value in data set [1] was determined as 2.49 ± 0.076 kcal/mol; in data set [2], 3.2 ± 0.11 kcal/mol; in data set [3] it was 3.64 ± 0.039 kcal/mol.

As to “SAGWRQILDMARNMLENGHMFRIEWTGPGGKPQEFRIPLDDIETLLDNWPDPDDIRSVDIEVYPPGEPISAG [r5_957_TrROS]”, the “folding stability dG unfold” value in data set [1] is 1.72 ± 0.021 kcal/mol; in data set [2], 2.22 ± 0.062 kcal/mol; in data set [3], 2.45 ± 0.056 kcal/mol.

For the sequence “SAGWYIKIKIEYPGDGQKKLEVPIPIPSPEEAKEFADEIADMLAEQNGGNIKIEVEVFRLPPVPPEDQGSAG [r5_87_TrROS]”, the figures for the “folding stability dG unfold” value in data set [1], in data set [2] and in data set [3] were 0.544 ± 0.11 kcal/mol, 1.82 ± 0.21 kcal/mol and 2.2 ± 0.15 kcal/mol, respectively.

In the case of “SAGWYYIIIIKHDNKPIVFVIPPEGMPPEGIRDQISEMLGMPPDNVEIDDIVPFDDNQDAEEAVKEALDSAG [r5_900_TrROS]”, the “folding stability dG unfold” value in data set [1] came out at 1.53 ± 0.067 kcal/mol; in data set [2], 2.09 ± 0.22 kcal/mol; in data set [3], 2.33 ± 0.14 kcal/mol.

Take “SAGYKATIIPPDGSEVTIDVKAEDLGPLVEELEKAGLKVESLEVSPDGTAVIPVTSPDGKPYLIVIDLKSAG [r5_645_TrMRF]”: the “folding stability dG unfold” value stood at 0.418 ± 0.032 kcal/mol in data set [1], 0.413 ± 0.094 kcal/mol in data set [2] and 0.305 ± 0.11 kcal/mol in data set [3].

With “SAIEITVMSDSPEEAKEKAKEFANWLQNRMRRDGLPDMPIPIKIEVIPVPPPKPKPKRDPDDGEWKPDPSAG [r14_475_TrROS]”, the “folding stability dG unfold” value in data set [1] was -0.415 ± 0.57 kcal/mol; in data set [2] it was 0.487 ± 0.23 kcal/mol; in data set [3], 0.731 ± 0.34 kcal/mol.

Turning to “SAIKIKNVEFNDNGWMEIEIPYPENGREVTIRMDPNGNIQVEEYPPNDGKPKRKTIPGMSIEEILEELLSAG [r14_760_TrROS]”, the figures for the “folding stability dG unfold” value in data set [1], in data set [2] and in data set [3] were 1.08 ± 0.24 kcal/mol, 0.55 ± 0.33 kcal/mol and 0.25 ± 0.13 kcal/mol, respectively.

Consider “SAIKLPDGFEIKEVEFTPDGNVTIKIEVKKYSFMIYNPDNGQIQHIPPGKEQEITMPPNEPMRIWVIKPSAG [r14_385_TrROS]”, for which the “folding stability dG unfold” value turned out to be 1.45 ± 0.13 kcal/mol in data set [1], 1.48 ± 0.36 kcal/mol in data set [2] and 1.58 ± 0.26 kcal/mol in data set [3].

As to “SAIRIEEITIDPEYGVITITFDYPMPPGAEKIKFKIFIDGFKIKEIEYEVDPENGWVRMTLTIRIPKDASAG [r14_244_TrROS]”, the figures for the “folding stability dG unfold” value in data set [1], in data set [2] and in data set [3] were 4.09 ± 0.28 kcal/mol, more than 6 kcal/mol and 6.5 ± 0.44 kcal/mol, respectively.

For the sequence “SAKEELYIIEIKVYVDGKEVKTITKVITVPEEKLEEKLKELLKKLAEELGLEIKKVEVKIKKLSLEELKSAG [r14_104_TrROS_Hall]”, the “folding stability dG unfold” value was 2.79 ± 0.22 kcal/mol in data set [1], 2.83 ± 0.34 kcal/mol in data set [2] and 3.09 ± 0.14 kcal/mol in data set [3].

On to “SAKFRPVEIPFEIKLEEKDPEDGKKEEREFDIKVKIMVFPDNGMVFISIEFIELGRPITIMLPPGAPIISAG [r14_587_TrROS]”, for which the “folding stability dG unfold” value in data set [1] stood at 2.61 ± 0.17 kcal/mol; in data set [2] it was 3.08 ± 0.28 kcal/mol; in data set [3], 3.37 ± 0.092 kcal/mol.

On to “SAKFRVSISYDPPDGYLTIMFRYPNPNQPITPEEIEEIAREILEERGHKVKIDEIHHEGNYFMIKIKLPSAG [r14_556_TrROS]”, for which the “folding stability dG unfold” value is 2.51 ± 0.11 kcal/mol in data set [1], 2.75 ± 0.2 kcal/mol in data set [2] and 2.54 ± 0.11 kcal/mol in data set [3].

With “SAKFRVTEIHPNGNNFEIRIERYDPNGEKKKLPIPVNADNMQIDEVDGDKITIYFPNNGREITLPLEDLSAG [r14_947_TrROS]”, the results for the “folding stability dG unfold” value in data set [1], in data set [2] and in data set [3] were -0.594 ± 0.34 kcal/mol, -0.152 ± 0.36 kcal/mol and -0.114 ± 0.42 kcal/mol, respectively.

For the sequence “SAKIEIIKKDGEYYLRITLENGKKKTIKLKGIKKIEIKNGKIYIYNKKTGKKIILKNAKIKKIEIEKVPSAG [r14_83_TrROS_Hall]”, the “folding stability dG unfold” value in data set [1] is 3.1 ± 0.18 kcal/mol; in data set [2] it was 3.87 ± 0.41 kcal/mol; in data set [3] it was 4.6 ± 0.18 kcal/mol.

For the sequence “SAKIEVYELPDGSKEIVFEFGDKVIRVTFFPDYPLAVVEVFDPPKDEVVKTIPVRADDLEDTIKKILEESAG [r14_583_TrMRF]”, the “folding stability dG unfold” value in data set [1] was 1.8 ± 0.096 kcal/mol; in data set [2], 2.67 ± 0.049 kcal/mol; in data set [3] it was 3.07 ± 0.049 kcal/mol.

As to “SAKIRIPLEKLIDLAESIPGVEVLYDPETGLLLAFIPEIGMLILIRLEEDPEDPDNVEVDIEIIPLSPFSAG [r14_604_TrMRF]”, the “folding stability dG unfold” value came out at 2.75 ± 0.16 kcal/mol in data set [1], 2.4 ± 0.19 kcal/mol in data set [2] and 2.08 ± 0.22 kcal/mol in data set [3].

For the sequence “SAKITFIAPGGKPIVIDIDPNYEVIEVIEFPELGVVLILLRNPETGELYAILITPPDYRPTYIELIPLDSAG [r14_311_TrMRF]”, the “folding stability dG unfold” value was determined as 3.43 ± 0.096 kcal/mol in data set [1], 4.17 ± 0.2 kcal/mol in data set [2] and 4.29 ± 0.15 kcal/mol in data set [3].
